Measurements taken from patent US20160362487A1 (Regeneron, published 2016).
Where a chain is given by its changes, count along the chain named. Names and notes keep the numbering of the source.

T1: cynomolgus monkey IL-33 expressed with a C-terminal hexahistidine tag (cynomolgus monkey)
T1 construct: also called MfIL-33-6His; Mf-IL-33-6His
T1 chain: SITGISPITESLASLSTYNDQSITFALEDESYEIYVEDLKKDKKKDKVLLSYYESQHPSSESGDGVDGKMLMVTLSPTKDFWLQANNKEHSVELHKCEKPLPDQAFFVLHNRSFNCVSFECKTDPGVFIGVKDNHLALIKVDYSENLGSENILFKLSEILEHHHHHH

T2: human IL-33 (R&D Systems, #3625-IL-010/CF) (human, UniProt O95760 112-270)
T2 construct: Commercial recombinant protein; also called hIL-33; interleukin-33
T2 sequence (looked up): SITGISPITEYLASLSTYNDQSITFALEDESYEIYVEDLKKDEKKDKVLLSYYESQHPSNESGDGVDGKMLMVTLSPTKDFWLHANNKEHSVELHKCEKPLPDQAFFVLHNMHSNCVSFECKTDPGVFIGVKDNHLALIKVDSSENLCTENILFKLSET

T3: biotinylated hIL-33 protein (R&D systems, Cat #3625-IL/CF) (human, UniProt O95760 112-270, biotinylated (sites not given))
T3 construct: Same commercial protein as m21, biotin-labelled; also called biotin-hIL-33
T3 sequence (looked up): T2 sequence (looked up)

B1: H4H9629P (antibody, human IgG4, V domains shown)
VH: EVQLVESGGGLVQPGGSLRLSCAASGFTFRSFAMSWVRQAPGKGLELVSDLRTSGGSTYYADSVKGRLTISRDNSKNTLYLQMNSLRAEDTAVYYCAKSHYSTSWFGGFDYWGQGTLVTVSS
VL: DIQMTQSPSSVSASVGDRVTITCRASQGFSSWLAWYQQKPGKAPKLLIYAASSLQSGVPSRFSGSGSGTDFTLTITNLQPEDFATYYCQQANSFPLTFGGGTKVEIK
notes: Human IgG4 Fc (H4H)
B2: H4H9660P (antibody, human IgG4, V domains shown)
VH: EVQLVESGGGLVQPGGSLRLSCAASGITLSSYGMSWVRQAPGKGLEWVASIFGSGGGPYYADSVKGRFTMSRDNSKNTLYLQMNSLRAEDTAVYYCAKDRYSGSYYGGFDYWGRGTLVTVSS
VL: B1 VL with F29I, S30T, K45T, S56T, T76S, N77S, D82H, L96P
notes: Human IgG4 Fc (H4H)
B3: H4H9662P (antibody, V domains shown)
VH: EVQLVESGGGLVQPGGSLRLSCAASGFTFSSYALTWVRQAPGKGLEWVSFISGSGGRPFYADSVKGRFTISRDNSKNMLYLQMNSLRAEDTAIYYCAKSLYTTSWYGGFDSWGQGTLVTVSS
VL: B1 VL with F29V, S30V, T76S, N77S, A91S, L96F, F98L, G100P, E105D
notes: Human IgG4 Fc (H4H)
B4: H4H9659P (antibody, human IgG4, V domains shown)
VH: QVQLVQSGAEVKKPGASVKVSCKASGYTFNSYGISWVRQAPGQGLEWMGWISSHNGNSHYVQKFQGRVSMTTDTSTSTAYMELRSLRSDDTAVYYCARHSYTTSWYGGFDYWGQGTLVTVSS
VL: B1 VL with K45Q, T69S, T76S, N77S
notes: Human IgG4 Fc (H4H)
B5: H4H9633P (antibody, human IgG4, V domains shown)
VH: EVQLVESGGGLVQPGGSLRLSCAASGFTFSSYVMSWVRQAPGKGLEWVSSISGNGGSTNYADSVKGRFTISRDNSKNTLFLEMNSLRAEDTAVYYCAKSLGTTTTFLGFDYWGQGTLVTVSS
VL: B1 VL with F29I, D70Y, T76S, N77S
notes: Human IgG4 Fc (H4H)
B6: H1M9565N (antibody, mouse IgG1, V domains shown)
VH: QVTLKESGPVLVKPTESLTLTCSVSGFSLSNVRMGVSWIRQSPGKALEWLAHIFSNDEKSYTTSLKTRLTISKDTSRSQVVLTMTDMDPGDTATYYCARIRNLAFNYWGQGTLVTVSS
VL: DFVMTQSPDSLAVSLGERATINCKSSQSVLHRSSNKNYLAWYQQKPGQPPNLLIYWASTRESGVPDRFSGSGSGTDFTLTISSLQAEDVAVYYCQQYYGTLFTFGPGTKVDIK
notes: Human variable domains, mouse IgG1 Fc (H1M)
B7: H1M9568N (antibody, mouse IgG1, V domains shown)
VH: QVLLVQSGAEVKKPGATVKVSCKASGSTFTGYYMHWVRQAPGQGLEWMGWINPNNGGTNYAQKFQGRVTMTRDTSISTAYMELSRLRSDDTAVYYCARELRYNWKSWGQGTLVTVSS
VL: EIVLTQSPGTLSLSPGERVTLSCRASQSVGRPYLAWYQQIPGQAPRLLIYGASSRATDIPDRFSGNGSGTDFTLTISRLEPEDFAVYYCQQYDNSPYTFGQGTRLEIK
notes: as for B6
B8: H1M9566N (antibody, mouse IgG1, V domains shown)
VH: EVQLLESGGDLVQPGGSLRLSCAASGFTFSSYAMSWVRQAPGKGLEWVSVISGSGSSTDYADSVKGRFTISRDNSRDTLHLQMNSLRAEDTAVYYCAKTFYYFYGLDVWGQGTTVTVSS
VL: DIQMTQSPSSLSASLRDRVTITCRASQGISNYLAWYQQKPGKVPKVLIYAASTLQSGVPSRFSGSGSGTVFTLTISSLQTEDVATYYCQKYSSAPFTFGPGTKVDIK
notes: as for B6
B9: H4H9640P (antibody, human IgG4, V domains shown)
VH: QVQLQESGPGLVKPSETLSLTCTVSGGSISSYYWSWIRQPPGKGLELIGYIYYSGSTNYNPSLKSRVTISVDTSKNHFSLKLSSVTAADTAVYYCARSQYTSSWYGSFDIWGQGTMVTVSS
VL: DIQMTQSPSSVSASVGDRVTITCRASQGISTWLAWFQQKPGKAPKLLIYAASTLQGGVPSRFSGSGSGPEFTLTISSLQPEDFATYYCQQANSFPWTFGQGTKVEIK
notes: Human IgG4 Fc (H4H)

Columns and labels:
[1] = molecular target: T1, cynomolgus monkey IL-33 expressed with …; assay: SPR 37C pH7.4, mAb captured
Protocol: (§1) Equilibrium dissociation constants (KD values) for IL-33 binding to purified anti-IL-33 monoclonal antibodies were determined using a real-time surface plasmon resonance biosensor using a Biacore 4000 instrument. The Biacore sensor surface was first derivatized by amine coupling with either a polyclonal rabbit anti-mouse antibody (GE, # BR-1008-38) or with a monoclonal mouse anti-human Fc antibody (GE, # BR-1008-39) to capture anti-IL-33 monoclonal antibodies expressed with mouse or with human IgG4 constant regions, respectively. All Biacore binding studies were performed in 0.01M ADA pH 7.4, 0.15M NaCl, 3 mM EDTA, and 0.05% v/v Surfactant Tween-20 (ABS-ET running buffer). […] Association of either hIL-33 or MfIL-33-6His to the captured monoclonal antibody was monitored for 4 minutes and their dissociation in ABS-ET running buffer was monitored for 10 minutes. The effect of reduced pH on the binding of each anti-IL-33 antibody to either hIL-33 or MfIL-33-6His was studied using an in-line pH chase assay format in 0.01M ADA pH 6.0, 0.15M NaCl, 3 mM EDTA, and 0.05% v/v Surfactant Tween-20 (ABS-ET pH6 buffer). To achieve this, association of either hIL-33 or MfIL-33-6His to the captured monoclonal antibody was monitored for 4 minutes in ABS-ET running buffer. Following a 30 second dissociation of either hIL-33 or MfIL-33-6His in ABS-ET running buffer, ABS-ET pH6 buffer was injected for 3 minutes, and the analyte dissociation under the low-pH conditions was measured. All the binding kinetic experiments were performed at both 25° C. and 37° C. Kinetic association (kₐ) and dissociation (kd) constants were determined by fitting the real-time sensorgrams to a 1:1 binding model using Scrubber 2.0c curve fitting software. Binding dissociation equilibrium constants (KD) and dissociative half-lives (t½) were calculated from the kinetic rate constants as: […]

[2] = molecular target: T2, human IL-33 (R&D Systems, …); assay: SPR 37C pH7.4, mAb captured
Protocol: as §1

[3] = molecular target: T2, human IL-33 (R&D Systems, …); assay: BLI; hIL-33 pre-mixed with mAb-2 H1M9565N
Protocol: Binding competition between a panel of different anti-IL-33 monoclonal antibodies was determined using a real time, label-free bio-layer interferometry assay on an Octet® HTX biosensor (ForteBio, A Division of Pall Life Sciences). The experiment was performed at 25° C. using a buffer of 0.01M HEPES pH7.4, 0.15M NaCl, 0.05% v/v Surfactant Tween-20, and 0.1 mg/ml BSA (HBS-ET kinetics buffer) with the plate shaking at a speed of 1000 rpm. To assess whether two antibodies were able to compete with one another for binding to human IL-33, a pre-mix assay format was used where 100 nM of human IL-33 (R&D Systems; #3625-IL-010/CF) was pre-mixed with 500 nM of different anti-IL-33 monoclonal antibodies (subsequently referred to as mAb-2) for at least 2 hours prior to running the binding competition assay. […] Following the capture step, unoccupied anti-mouse Fc polyclonal antibody and anti-human Fc polyclonal antibody on the Octet biosensors were saturated by submerging them for 4 minutes into wells containing 200 μg/mL of a non-specific monoclonal antibody with a mouse Fc or with a human Fc, respectively. Finally, the Octet biosensors were immersed for 4 minutes into wells containing the pre-mixed samples of 100 nM of human IL-33 and 500 nM of mAb-2. At the end of each cycle, the non-covalently captured anti-IL-33 antibodies along with the bound pre-complex of human IL-33 and mAb-2 were removed from the biosensors using three alternate 20 second immersions into 10 mM HCl followed by submerging into HBS-ET kinetics buffer. The biosensors were washed in HBS-ET kinetics buffer in between every step of the experiment. The real-time binding response was monitored during the binding events, and the binding response (in units of nm) at the end of every step was recorded.

[4] = molecular target: T3, biotinylated hIL-33 protein (R&D …); assay: competition ELISA, 30 pM biotin-hIL-33 on coated hST2-hFc
Protocol: The ability of anti-IL-33 antibodies to block either human IL-33 (hIL-33) or cynomologus monkey IL-33 binding to the human ST2 receptor was measured using a competition sandwich ELISA. […] The antibody/IL-33 mixtures were incubated for 1 hour at room temperature before they were transferred to the hST2-hFc-coated microtiter plates. After incubating for 1 hour at room temperature, the wells were then washed, and plate-bound biotin-hIL-33 was detected with streptavidin conjugated with horse-radish peroxidase (HRP) (Thermo Scientific, Cat # N200), and plate-bound MfIL-33-6His was detected with a HRP conjugated anti-His monoclonal antibody (Qiagen, #34460). All samples were developed with a TMB solution (BD biosciences, #51-2607KC) to produce a colorimetric reaction and then quenched by acidification with 1M sulfuric acid before measuring absorbance at 450 nm on a Victor X5 plate reader. Data analysis was performed using a sigmoidal dose-response model within Prism™ software. […] Percent blockade was calculated as the ratio of the reduction in signal observed in the presence of antibody relative to the difference between the signal with IL-33 alone and background (signal from HRP-conjugated secondary antibody or streptavidin alone). The absorbance measured for the constant concentration of biotin-hIL-33 or MfIL-33-6His alone is defined as 0% blocking and the absorbance measured for no added IL-33 is defined as 100% blocking.

Row | Binder | Kd [1] [pM] | koff [1] [s⁻¹] | kon [1] [M⁻¹ s⁻¹] | t½ [1] [min] | Kd [2] [pM] | koff [2] [s⁻¹] | kon [2] [M⁻¹ s⁻¹] | t½ [2] [min] | mAb-1 Binding to the Pre-complex of mAb-2 & hIL-33 [3] [nm] | % Maximum blocking [4] [%] | IC50 [4] [pM]
1 | B1 | 32400 | 0.0347 | 1.07e+06 | 0.3 | 508 | 0.000646 | 1.27e+06 | 18 | 0.74 | 80 | 450
2 | B2 | 6530 | 0.00444 | 680000 | 2.6 | 596 | 0.000479 | 803000 | 24 | 0.53 | 57 | 310
3 | B3 | 2240 | 0.00158 | 707000 | 7 | 443 | 0.00062 | 1.4e+06 | 19 | 0.57 | 77 | 1000
4 | B4 | 3110 | 0.00186 | 598000 | 6 | 570 | 0.000403 | 707000 | 29 | 0.52 | 78 | 400
5 | B5 | 48600 | 0.0227 | 468000 | 0.5 | 931 | 0.000689 | 740000 | 17 | 0.66 | 66 | 440
6 | B6 | 2590 | 0.000202 | 78200 | 57 | – | – | – | – | – | 68 | 22000
7 | B7 | 4460 | 0.00173 | 389000 | 7 | 1430 | 0.000961 | 672000 | 12 | 0.08 | 55 | 190
8 | B8 | 1000 | 0.0004 | 399000 | 29 | 1700 | 0.000283 | 166000 | 41 | 0.17 | 69 | 320
9 | B9 | 5380 | 0.00436 | 810000 | 2.6 | 498 | 0.000573 | 1.15e+06 | 20 | 0.57 | 78 | 350
